Results on three molecules are retold here after publication PMC12527946, “Structural analyses define the molecular basis of clusterin chaperone function” (Nature Structural & Molecular Biology, 2025).

The chains are these.
B1: wild-type human clusterin (WT Clu) (natural protein)
chain 1: DQTVSDNELQEMSNQGSKYVNKEIQNAVNGVKQIKTLIEKTNEERKTLLSNLEEAKKKKEDALNETRESETKLKELPGVCNETMMALWEECKPCLKQTCMKFYARVCRSGSGLVGRQLEEFLNQSSPFYFWMNGDRIDSLLENDRQQTHMLDVMQDHFSRASSIIDELFQDRFFTREPQDTYHYLPFSLPHRRPHFFFPKSRIVR
chain 2: SLMPFSPYEPLNFHAMFQPFLEMIHEAQQAMDIHFHSPAFQHPPTEFIREGDDDRTVCREIRHNSTGCLRMKDQCDKCREILSVDCSTNNPSQAKLRRELDESLQVAERLTRKYNELLKSYQWKMLNTSSLLEQLNEQFNWVSRLANLTQGEDQYYLRVTTVASHTSDSDVPSGVTEVVVKLFDSDPITVTVPVEVSRKNPKFMETVAEKALQEYRKKHREE
modifications: N-glycans (six in the whole protein); five disulfide bonds to the α-chain | N-glycans (six in the whole protein); five disulfide bonds to the β-chain
notes: clusterin β-chain, human, residues 23–227 of the precursor; clusterin α-chain, human, residues 228–449 of the precursor; Almost completely processed by furin into β- and α-chain, which stay disulfide-linked; In the flotation assay it stood in DMPC nanodiscs (Clu–DMPC); also called apolipoprotein J; ApoJ
B2: receptor-associated protein (RAP) (natural protein, UniProt P30533 36-357, looked up)
chain: SREKNQPKPSPKRESGEEFRMEKLNQLWEKAQRLHLPPVRLAELHADLKIQERDELAWKKLKLDGLDEDGEKEARLIRNLNVILAKYGLDGKKDARQVTSNSLSGTQEDGLDDPRLEKLWHKAKTSGKFSGEELDKLWREFLHHKEKVHEYNVLLETLSRTEEIHENVISPSDLSDIKGSVLHSRHTELKEKLRSINQGLDRLRRVSHQGYSTEAEFEEPRVIDLWDLAQSANLTDKELEAFREELKHFEAKIEKHNHYQKQLEIAHEKLRHAESVGDGERVSRSREKHALLEGRTKELGYTVKKHLQDLSGRISRARHNEL
notes: LRPAP1 from plasmid pQTEV-LRPAP1; the signal peptide (amino acids 1–35) was removed; Purification is told in the Supplementary Information; also called LRPAP1; low density lipoprotein receptor-related protein-associated protein 1
B3: denatured bovine rhodanese (D-Rho) (enzyme, UniProt P00586 1-297, looked up)
chain: MVHQVLYRALVSTKWLAESVRAGKVGPGLRVLDASWYSPGTREARKEYLERHVPGASFFDIEECRDKASPYEVMLPSEAGFADYVGSLGISNDTHVVVYDGDDLGSFYAPRVWWMFRVFGHRTVSVLNGGFRNWLKEGHPVTSEPSRPEPAIFKATLNRSLLKTYEQVLENLESKRFQLVDSRAQGRYLGTQPEPDAVGLDSGHIRGSVNMPFMNFLTEDGFEKSPEELRAMFEAKKVDLTKPLIATCRKGVTACHIALAAYLCGKPDVAIYDGSWFEWFHRAPPETWVSQGKGGKA
notes: rhodanese (33 kDa), bovine; Denatured in 6 M guanidinium–HCl and 5 mM DTT and diluted 120-fold into buffer; non-native, forms oligomers and aggregates

Series [1] addresses VLDLR(28–797)Δ(751–779)-C-tag (VLDLR ectodomain) (human, UniProt P98155-2 28-797, Δ(751–779)). Kind of series: ELISA; plate coated with 10 µg/ml VLDLR-ed; Clu or RAP in TBS-C pH 7.4, 2 mM CaCl2, 2% BSA, 0.05% Tween-20, 1 h at room temperature; background binding to BSA subtracted; one-site specific binding fit. The settings on record: both partners purified.
Series [2] deals with the molecule itself. Kind of series: SEC; 10 μM Clu in 20 mM MES-NaOH pH 6.5, HEPES-NaOH pH 7.5 or Tris-HCl pH 8.5, 100 mM NaCl, 1 mM EDTA, overnight or longer on ice; Superdex-200 Increase 3.2/300 at room temperature; monomers and dimers. For orientation: Size exclusion chromatography separates by hydrodynamic size, large species first.
Series [3] has as its target VLDLR(28–797)Δ(751–779)-C-tag (VLDLR ectodomain) (human, UniProt P98155-2 28-797, Δ(751–779), Secreted from HEK293E, glycosylated, Ca2+-bound LDLR repeats, disulfides; C-terminal C-tag left out. Deletion 751-779 taken as printed, in the numbering of the long isoform). Kind of series: ELISA; plate coated with 10 µg/ml VLDLR-ed; Clu or RAP in TBS-C pH 7.4, 2 mM CaCl2, 2% BSA, 0.05% Tween-20, 1 h at room temperature; background binding to BSA subtracted; one-site specific binding fit. The settings on record: both partners purified. (In general: An ELISA detects its analyte on a solid surface through an enzyme-linked reagent.)

The target of series [4] is B1. Kind of series: SEC; D-Rho diluted into PBS to 0.5 μM with 1.5 μM WT Clu, 30 min at 25 °C; soluble fraction on Superose-6, fractions by SDS-PAGE and immunoblotting against Rho and Clu. The settings on record: both partners purified.

Take B1: in series [1], the Kd (usually the equilibrium constant for the complex coming apart) is approximately 80 nM. Moreover, the stoichiometry N (usually a count of units in the complex or per binding partner) in series [2] is 2.
In the case of B2, the Kd in series [3] is approximately 1.2 nM.
Turning to B3, the binding result in series [4] is given as “binds”.
